Experimental data published in the nanobody polyreactivity screen of Harvey et al. (2022).

assay: yeast display, Sf9 membrane polyspecificity reagent, FACS + sequencing; frameworks hold sequencing errors
Procedure, shortened: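 Nanobodies from a synthetic yeast display library (Saccharomyces cerevisiae BJ5465), induced 36–48 hours with galactose, were stained 1 hour at 4 °C with 10% biotinylated, detergent-solubilized Sf9 membrane reagent, enriched on streptavidin microbeads, then FACS-sorted. Anti-HA (expression) and streptavidin (reagent binding) fluorescence set low and high (top ~1%) gates. Polyreactivity labels come from the gate of origin. Genes were colony-PCR amplified, MiSeq 2 × 250 sequenced and filtered by CDR length.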

| Sequence | polyreactivity (PSR sort gate) |
| --- | --- |
| QVQLQESGGGLVLAGGSLRLSCAESGYISWSFTMGWYRKAPGKEREFVAGITYGGITYYADSVKGRFTISRDNAKNTVYLQMNSLKPEDTAVYYCAAPQTYPYVYVYWGQGTQVTVSS | high polyreactivity |
| QVQLQESGGGLVLAGGSLRLSCSASGNISVYGSMGWYRQAPGKEREFVATIDPGTNTNYADSVKDRFTISRDNAKNTVYLQMNSLKPEDTAVYYGAVEAGSDWPYPYWGQGTQVTVSS | low polyreactivity |
| QVQLQESGGGLVLAGGSLRLSCSASGNISVYGSMGWYRQAPGKEREFVATIDPGTNTNYADSVKDRFTISRDNAKNTVYLQMNSLKPVDTAVYFCAVEAGSDWPYRYWGQGTQVTVSS | low polyreactivity |
| QVQLQESGGGLVLAGGSLRLSCSASGNISVYGSMGWYRQAPGKEREFVATIDPGTNTNYADSVKDRFTISRDNAKNTVYLQMNTRKPEDTAVYYCAVEAGSDWPYRYWGQGTEVTVSS | low polyreactivity |
| QVQLQESGGGLVLAGGSLRLSSAATGSISAQAYMGWDRQAPGKEREHVAGINYGDNTNYADSVKGRFTISRDNEHSVSADEQPESGRYRCVLLRGFLELFYYYIYWGQGTQVTVSS | high polyreactivity |
| QVQLQESGGGLVQADGSLRLSCAASGSMFGYYYMGWYRQAPGKDRELVATIHICGITNYADSVKGRFTISRDNAKNTVYLQMNSLKPDDTAVYYCAADEYAQRDLGYWGQGTQVTVSS | low polyreactivity |
| QVQLQESGGGLVQAGCSLRLSCAASGTISVHASMGWYRQAPGKERELVAGITDGANTYYADSVKGRFTISRDNSKNTVYLQMNSLKPEDTAVYYCAAYYGTEVHFTYWGQGTQVTVSS | low polyreactivity |
| QVQLQESGGGLVQAGGCLRLSCAASGTIFDPDYMVWYHQAPGKERELVASISLGRMTYYADSVKGRFTINRDNAKNTVYVQMNTLKPEDTAVYYCAVRVETIYYYSYWGQGTQVTVSS | high polyreactivity |
| QVQLQESGGGLVQAGGCLRLSCAASGTISTAYQMGWYRQAPGKEREFVAAIGYGAITNYADSVKGRFTISRDNAKNTVYLQMNSLKPEDTAVYYCAARRYVAGRGAYDYWGQGTQVTLSS | low polyreactivity |
| QVQLQESGGGLVQAGGCLSCTASGTIFGQGDMGWYRQAPGKERELVATINDGASTYYADSVKGRFTISRDKAKNTVYLQKNSLKPDDTAVYYCAVCTDITTYFGYWGQGTQVTVSS | low polyreactivity |
| QVQLQESGGGLVQAGGDLRLSCAASGKILRDYIMGWYRQASGKEREFVAGIDRGANTNYADSVKGRLTISRDNAKKTVYLQMNSLKPEDTAVYYCAVHTAIVPDFIYWGQGTQVTVSS | low polyreactivity |
| QVQLQESGGGLVQAGGDLRLSCAASGNIFLDYIMGWYRQAPGKEREFVAGIDRGANTNYADSVKGRFTISRDNAKNTLYLQMNSLKPEDTAVYYCAVHTAIVPDFIYWGQGTEVTVSS | low polyreactivity |
| QVQLQESGGGLVQAGGDLRLSCAASGNIFRDYIMGWYRQAPGKELEFVAGIDRGANTNYADSVKGRFTISRDNAKNTVYLQMNSLKPEDTAVYYCAVHTAIVPDFIYWGQGTQVTVSS | low polyreactivity |
| QVQLQESGGGLVQAGGDLRLSCAASGNIFRDYIMGWYRQAPGKEREFVAGIDRGANTNYADSVKGRFTISRDNAKNTVYLQMNSLKPEDTAVYYCAVHTAIVPDFIYWGQGSQVTVSS | low polyreactivity |
| QVQLQESGGGLVQAGGDLRLSCAASGNIFRDYIMGWYRQAPRKEREFVAGIDRGANTNYADSVKGRFTISRDNAKNTVYLLLNSLKPEDTAVYYCAVHTAIVPDFIYWGQGTQVTVSS | low polyreactivity |
| QVQLQESGGGLVQAGGILRLSCAACGNIFPSAVMGWYRQALAKEREFVATINSGSNTYYADSVKGRFTISRDNAKNTVYLQMNSLKLEDTAVYYCAAYFKLQAWHTYWGQGTQVTVSS | low polyreactivity |
| QVQLQESGGGLVQAGGILRLSCAASGTISDRAGMGWYREAPAKNAIGATIDRGTNTNYADSVKGRFTISRDNAKNTVYLQMNSLKREDTAVYNCAADGRYYIYLDYWGQGTQVTVSS | low polyreactivity |
| QVQLQESGGGLVQAGGRLRLSCAASGYISTFSSEMGWYRQAPGKERELVASIAPGCTTSYADSVKGRFTISRDYAKNTEFLQMNSLKPEDTAVYYCAVDYTVPASFGYWGQGSQVTVSS | high polyreactivity |
| QVQLQESGGGLVQAGGSLCLSCAASGTIFFDGDMGWYRQAPCKEREFVAAINPGGSAYYADSVKGRLPLAAITHTVYLQMNSLKPEDTAVYYCAAKLFDVYGYYYWGQGTHVTVSS | low polyreactivity |
| QVQLQESGGGLVQAGGSLCMSCAASGSISDYIFMGWYRQAPGKEREFVAGIGIGGNTNYADSVKGRFTISRDNAKNTVYLQMNSLKPEDTAVYYCAANATYTDYYAYWGQGTKVTVSS | low polyreactivity |
| QVQLQESGGGLVQAGGSLCMSCAASGSISDYIFMGWYRQAPGKEREFVAGIGIGGNTNYADSVKGRFTISRDNAKNTVYLQMNSLKPEDTAVYYCAANATYTDYYAYWGQGTQVTVSS | low polyreactivity |

| Sequence | polyreactivity (PSR sort gate) |
| --- | --- |
| QVQLQESGGGLVQAGGSLGCAASGNISTRSEMGWYRQAPGKEREFVATINSGGITNYADSVKGRFTISRDNAKNTVYLRMNSLKPEDTAVYYRAVYGDFSDPYDYWGQGTQVTVSS | low polyreactivity |
| QVQLQESGGGLVQAGGSLGCAASGNISTRSEMGWYRQAPGKEREFVATINSGGITNYADSVKGRFTISRDNAKNTVYLRMNSLKPEDTAVYYRAVYGYFSDPYDYWGQGTQVTVSC | low polyreactivity |
| QVQLQESGGGLVQAGGSLLSCAASGTISYYREMGWYRQAPGKERELVAGIGVGTITYYADSVKGRFTISRDNAKNTVYLHMNSLKPEDTAVYYCAAHIDGNDSHAYWGQGTQVTVSS | low polyreactivity |
| QVQLQESGGGLVQAGGSLRKSCAASGSVSYQEAMGWYRQAPGKERELVATISFGANTNYADSVKGRFTISRDNAKNTVYLQMNSLKPEDTAVYYCAAESLFDDYYGYWGQGTQVTVSS | low polyreactivity |
| QVQLQESGGGLVQAGGSLRLGCAASGNISDAGYMGWYRQAPGKEREFVAAIAAGSNTNYADSVKGRFTISRDNAINTVYLQMNSLKPEVTAVFYCAVASYARVQYEYWGQGTQVTVNS | low polyreactivity |
| QVQLQESGGGLVQAGGSLRLICAASGTIFSARFMGWYRQAPGKERELVATITDGGNTNHADSVKGRFTISRDNAKNTVYLKMYSLKPEDAAVYYCAAGEVDNDTLLFWGQGSQVTVSS | low polyreactivity |
| QVQLQESGGGLVQAGGSLRLPCAASGNISDAGYMGWYRQAPGKQREFVAAIAAGSNTNYADSVKGSFTISRDNAKNTVYLQMNSLKPEDTAVIFFAVASYARVQYEYWGQGTQVTVNS | low polyreactivity |
| QVQLQESGGGLVQAGGSLRLRCAASRNISGSSDLGWYHQAPGKEREFVASITSGGTTYYADSVKGRFTISRDNAKNTVYLQMNSLKPEDTAVYYCAAESRYPFIYEYWGQGTQVTVSS | low polyreactivity |
| QVQLQESGGGLVQAGGSLRLSCAAIGSISILQSMGWYRQAPGKERELVAGINWGATTYYADSVKGRLTTSRDYAKNTVYLQMNSLKPEDTAVYYCAVPTYYTYPLLYWGQGTQVTVSS | low polyreactivity |
| QVQLQESGGGLVQAGGSLRLSCAARASIFKVVDMGLYRQAPAKEREFVATIGEGGNTYYADSVKGRFTISRDNAKNTVYLQMNSLKPEDTAVYFYAVVLGTSYRYTYWGQGTQVTVSS | low polyreactivity |
| QVQLQESGGGLVQAGGSLRLSCAASGLILARNYMGWYRQAPGTERELVSGIGVGASTNYADSVKGRFTISRDNAKNTVYLQMNSLEPEDTAVYYCAVGDTVLGYHYYWGQGTQVTVSN | low polyreactivity |
| QVQLQESGGGLVQAGGSLRLSCAASGNISSYYRMGWYRHAPGKEREFVATIAVGGTTNYADSVKGRFTISRDNAKNTVYLQMNSLKPEDTAVCFCAANCNQYTWFDYWGQGTQVPVSS | low polyreactivity |
| QVQLQESGGGLVQAGGSLRLSCAASGNISVTGFMGWYRKAPGKERELVASIGIGGTTYYADSVKGRFSISRDNAKNTVYLQMNSLKPEDTAVYYCAARYLYYAYSYWGQGTQVTVSS | low polyreactivity |
| QVQLQESGGGLVQAGGSLRLSCAASGNIVDADIMGWYRQAPGKERELVASITDGGSTNYADCVKGRFTISRDNAKNTVYLKMNSLKPEDTAVYYCAAIAYPDIPTYFDYDSEYFYWGQGTQVTVSS | low polyreactivity |
| QVQLQESGGGLVQAGGSLRLSCAASGNIYDADIMGWYRQAPAKERELVTSITDGGSTNYADSVKGRFTISRDNAKNTVYLQMNSLKPEDTAVYYCAAIAYPDIPTSFDYNSDYSYWGQGTQVTVSS | low polyreactivity |
| QVQLQESGGGLVQAGGSLRLSCAASGNIYDADIMGWYRQAPGKERELVTSITDGGSTNYADSVKGRFTISRDNAKNTVYLQMNSLKPEDTAVYYSAAIAYADIPTSFDYNSDYSYWGQGTQVTVSS | low polyreactivity |
| QVQLQESGGGLVQAGGSLRLSCAASGNIYEADIMGWYRQAPGKERELVTSITDGGSTNYADSVKGRFTISRDNAKNTVYLQMNSLKPEDTAVYYCAAIAYPDIPTSFDYNSDYSYWGQGTQVTVSS | low polyreactivity |
| QVQLQESGGGLVQAGGSLRLSCAASGSIFDGFNMGWYRQAPGKEREFVAAISYGASTYYADSVKGRFTVSRDNAKNSVYLQMNILKPEDTAVYYCAVVPSDGNLFSYWGQGTQVTVSS | low polyreactivity |
| QVQLQESGGGLVQAGGSLRLSCAASGSIFDGFNMGWYRQAPGKEREFVAAISYGASTYYADSVKGRFTVSRDNAKNSVYLQMNSLKPEDTAVYYCAVYDELYHVLVYWGRGTQVTVSS | low polyreactivity |
| QVQLQESGGGLVQAGGSLRLSCAASGSIFKGVDMGLYRQAPAKEREFVATIGEGGNTYYADSVKGRFTISRDNAKNTVYLQMNSLKPEDTAVYFYAVVLGTSYRYTYWGQGTQVTVSS | low polyreactivity |
